Assay results reported in patent US20020053098.

Legend:
[1] = biological target: herbicide-resistant mutant (Met124His) Arabidopsis AHAS large subunit protein (UniProt P17597)
[2] = biological target: wild type Arabidopsis AHAS large subunit protein (pAC774) (UniProt P17597)

Arabidopsis AHAS small subunit protein expressed from plasmid F1, sequence (chain, as listed by the source): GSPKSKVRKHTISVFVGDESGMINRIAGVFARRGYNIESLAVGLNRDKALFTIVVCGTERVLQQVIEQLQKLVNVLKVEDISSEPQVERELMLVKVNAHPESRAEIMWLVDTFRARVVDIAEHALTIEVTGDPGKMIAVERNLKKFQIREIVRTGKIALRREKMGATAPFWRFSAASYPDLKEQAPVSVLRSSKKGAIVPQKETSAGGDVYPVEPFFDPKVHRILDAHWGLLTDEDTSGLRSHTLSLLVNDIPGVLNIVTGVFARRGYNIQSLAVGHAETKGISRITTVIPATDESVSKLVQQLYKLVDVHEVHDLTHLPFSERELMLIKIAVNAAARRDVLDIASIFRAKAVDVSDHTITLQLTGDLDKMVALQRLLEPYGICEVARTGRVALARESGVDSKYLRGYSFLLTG

Arabidopsis AHAS small subunit protein expressed from plasmid F1
AHAS enzymatic activity of the mutant large subunit in vitro, in the presence of small subunit [1]: the enzymatic activity of a herbicide-resistant form of the large subunit is also enhanced | AHAS enzymatic activity of the large subunit in vitro, with increasing amounts of small subunit [2]: small subunit protein enhances the level of enzymatic activity of the catalytic large subunit
